Results from patent publication US9023998B2, “Near infrared fluorogen and fluorescent activating proteins for in vivo imaging and live-cell biosensing” (Carnegie Mellon University, priority 2013, dated 2015).

Columns and labels:
dL9 (SEQ. ID NO: 1) = assay: Fluorescence activation of SKC638 by purified dL9; format: biochemical; conditions: molar excess of purified dL9, excitation 630 nm, non-normalized spectrum
Source text: The non-normalized emission spectrum shown (black, solid) was acquired using a Quantamaster fluorometer (PTI) by excitation through monochromators set at 630 nm. The primary peak near 730 nm is likely due to contaminating SKC602, while a second, smaller peak is clearly observed near 823 nm, and is likely contributed by the extended chromophore of SKC638.

[1] = test system: HEK293 cells expressing dL9.5; assay: Confocal imaging of HEK293 cells expressing dL9.5 in various cellular contexts; format: cell-based; conditions: cytoplasmic dL9.5-eGFP, 200 nM SKC602, fluorogen not washed away
Source text: The expressed construct was imaged using an Andor Revolution XD spinning disk confocal (GFP 488:525/50, dL9.5 (SEQ. ID. NO. 3) 640:685/70 AND 640:794/160, 60×1.49 NA oil immersion objective) and the results are shown in FIG. 5. […] The fluorogen was not washed away prior to imaging.
Imaging conditions were similar to those described for obtaining FIG. 5.
CYTOPLASM. HEK293 cells were transfected with, and stably expressing the pCYdL9.5eGFP vector, were thawed from a cryostock and maintained in DMEM/10% FBS for four passages prior to fluorescence imaging procedures. Immediately prior to imaging, growth media was exchanged for HBSS (pH 7.4) supplemented with SKC602 (200 nM final concentration). The cells were allowed to recover at 37° C. with 5% CO2 for 20-30 minutes, and fluoromodule activity under in vivo conditions within the cytoplasm was imaged using an Andor Revolution XD spinning disk confocal microscope (60×1.49 NA oil immersion objective, excitation at 640 nm, emission in far-red: 685/70 filter, and NIR: 794/160 filter). The same cells were also imaged for eGFP activity (excitation at 488 nm, emission via 525/50 nm filter). […] In accordance with the fluoromodule emission spectrum shown in FIG. 2, this emission filter allows the microscope camera to detect a large portion of the fluoromodule emission, and consequently, the observed signal appears brighter. One must note that intensities cannot be directly compared between channels, due to considerations non-exclusively including: differences in excitation light intensities, exposure and capture times, the transmission profile of each emission filter, and the quantum efficiency of the iXON3 DU897 (back-illuminated) camera across the range of emitted wavelengths. An evenly distributed fluorescence signal is observed in these cells, with no bright foci that would indicate protein aggregation, and the fluoromodule signal intensity scales with that of eGFP.
PLASMA MEMBRANE. […]

[2] = Spectral properties of fluoromodules (Table 1); format: physicochemical; conditions: fluoromodule (FAP:fluorogen complex)
Source text: The spectral properties of fluoromodules assembled from combinations of dL9.2 (SEQ. ID. NO. 2) and dL9.5 (SEQ. ID. NO. 3) with SKC602 and SKC728 are listed in Table 1. dL9.2 (SEQ. ID. NO. 2) is an asymmetric light chain (VL-VL) tandem dimer based upon dL9 (SEQ. ID. NO. 1), hosting the V70A mutation on the N-terminal light chain. dL9.5 (SEQ. ID. NO. 3) is a symmetric light chain (VL-VL) tandem dimer based upon dL9.2 (SEQ. ID. NO. 2) with the V70A mutation propagated to C-terminal chain, and an additional Y96H mutation that is present on both chains. These genetically encoded fluorescent labels yield good brightness in the far-red/NIR spectral regime when combined with their cognate fluorogens.
The dL9.2:SKC602 (SEQ. ID. NO. 2:SKC602) fluoromodule (black, solid) emits at longer wavelengths than existing biliverdin-binding infra-red fluorescent proteins, while retaining the ability to be excited effectively by common illumination sources such as the HeNe laser line (633 nm) as well as lamps equipped with Cy5™-compatible excitation filters. Spectra of dL9.5 (SEQ. ID. NO. 3) bound to SKC602 are highly similar. Excitation and emission spectra are normalized to the highest value within each data set.
(§1) Relative fluorescence quantum yield assessments were conducted via the gradient method (Williams, Winfield and Miller, Relative Fluorescent Quantum Yield Using a Computer-controlled Luminescence Spectrometer, Analyst, vol. 108, 1067-1071 ([…]) against reference dyes Cy5.18 in PBS, pH 7.4 (Mujumdar, et al., Cyanine Dyes Labeling Reagents: Sulfoindocyanine Succinimidyl Esters, Bioconjugate Chemistry, Vol. 4, No. 2, 105-111 (1993) and oxazine-1 in absolute ethanol (Worth, et al., Integrating Sphere Setup for the Traceable Measurement of Absolute Photoluminescence Quantum Yields in the Near Infrared, Analytical Chemistry, 84, 1345-1352 (2012). Fluoromodules were formed by combining a quantity of fluorogen (SKC602 or SKC728) at least 20-fold above the fluoromodule dissociation constant with a molar excess of purified FAP (dL9.2 (SEQ. ID. NO. 2) or dL9.5 (SEQ. ID. NO. 3)). The solutions were incubated at 4° C. with rocking for at least one hour prior to measurements in order to ensure complete complex formation. The optical path length for all sample measurements was 1.00 cm, and all solutions were at room temperature during measurement. Absorbance measurements were taken using a PerkinElmer Lambda 45 UV/VIS spectrometer, while fluorescence emission spectra were measured using a Quantamaster fluorometer equipped with dual excitation and emission monochromators (Photon Technology International). Fluorescence emission was integrated using Spekwin32 (Menges 2013, http://www.effemm2.de/spekwin/spekwin_copyright/de.html. Linear fits and quantum yield ratios were calculated in Microsoft Excel 2013.

[3] = Relative fluorescence quantum yield of fluoromodules, gradient method; format: physicochemical; conditions: relative to Cy5.18 in PBS pH 7.4 and oxazine-1 in ethanol; molar excess of FAP; room temperature
Method: as §1

[4] = Fluoromodule activity/stability with respect to pH; format: physicochemical; conditions: for Longer-term stability of fluorescence across pH: 24 hours
Method: […] 4. The averages of five replicates per pH increment are shown as filled circles; bars denote extreme values within each replicate set, and normalization is to the maximum value within all data points. […] Stability of this degree allows the fluoromodule probe to be useful in an extremely wide range of cellular contexts.
A set of titrating buffers occupying pH values from 2.0 to 10.0 in 0.5 unit increments was prepared at room temperature in accordance to a published recipe (Carmody, An Easily Prepared Wide Range Buffer Series, Journal of Chemical Education, Vol. 38, No. 11, pp. 559-560 (1961)) adjusted to accommodate sodium chloride at a concentration of 300 mM. Fluoromodules consisting of dL9.5 bound to SKC602 were prepared by addition of 16.7 μL HPLC-purified SKC602 (300 μM stock in EtOH/5% acetic acid) to 1.30 mL Buffer (10.0 mM Tris, pH 8.0 at RT, supplemented with 300 mM NaCl). Purified dL9.5 was added (1.5 mL, approximately 50 μM stock) and incubated at 4° C. for 90 minutes. […] Fluorescence was then measured using a TECAN Infinite M1000 plate reader with 695/10 nm excitation and 735/10 nm emission windows at a gain of 111. Data was processed in Microsoft Excel 2010: The mean fluorescence intensity value for each pH increment was calculated, and all mean values were divided by the maximum mean intensity in order to normalize fluorescence intensities measured across the entire pH range to a value of 1.0. Extreme values within each set of five replicates calculated to a percentage of the mean for each pH increment in order to indicate the degree of variation across replicate reads.

Molecule	Emission peak contributed by extended chromophore (dL9 (SEQ. ID NO: 1)) [nm]	NIR fluorescence in cytoplasm of HEK293 cells [1]	Brightness (ε · Φ · 1 × 10^−3) [2]	Em (nm), emission maximum [2] [nm]	Ex (nm), excitation maximum [2] [nm]	ε [2] [M⁻¹ cm⁻¹]	Φ (fluorescence quantum yield) [3]	Fluorescence stability across pH range ([4]; Carmody buffer with 300 mM NaCl, pH 2-10, after three hours)	Change of mean fluorescence in each pH solution over one hour ([4]; pH 2.0-10.0, reads every minute for one hour) [%]	Longer-term stability of fluorescence across pH [4]
CN(C)c1ccc(/C=C/C=C/C(=C2C=CC(=[N+](C)C)C=C2)c2ccc(N(C)C)cc2)cc1 [SKC638]	~823	–	–	–	–	–	–	–	–	–
dL9.5:SKC602: fluoromodule: FAP dL9.5 (SEQ. ID. NO. 3) non-covalently complexed with fluorogen SKC602 (protein, non-covalent fluorogen SKC602; Fluorogen Activating Peptide (FAP) sequence) SYELTQPPSVSVSPGQTARITCSGDALPKQYTYWYQQKAGQAPVLVIYKDTERPSGIPERFSGTSSGTTATLTISGVQAEDEADYYCQSADSSGSHVFFGGGTKVTVLSGGGGPGGGSGGGSGGGSGGGSYELTQPPSVSVSPGQTARITCSGDALPKQYTYWYQQKAGQAPVLVIYKDTERPSGIPERFSGTSSGTTATLTISGVQAEDEADYYCQSADSSGSHVFFGGGTKVTVLS	–	produces NIR fluorescence	20	731	702	120000	0.17	exceptional stability across a broad pH range	≤ 3	–
dL9.2:SKC728: fluoromodule: FAP dL9.2 (SEQ. ID. NO. 2) non-covalently complexed with fluorogen SKC728 (protein, non-covalent fluorogen SKC728; Fluorogen Activating Peptide (FAP) sequence) SYELTQPPSVSVSPGQTARITCSGDALPKQYTYWYQQKAGQAPVLVIYKDTERPSGIPERFSGTSSGTTATLTISGVQAEDEADYYCQSADSSGSYVFFGGGTKVTVLSGGGGPGGGSGGGSGGGSGGGSYELTQPPSVSVSPGQTARITCSGDALPKQYTYWYQQKAGQAPVLVIYKDTERPSGIPERFSGTSSGTTVTLTISGVQAEDEADYYCQSADSSGSYVFFGGGTKVTVLS	–	–	19	733	703	90000	0.21	–	–	remained stable over 24 hours
dL9.2:SKC602: fluoromodule: FAP dL9.2 (SEQ. ID. NO. 2) non-covalently complexed with fluorogen SKC602 (protein, non-covalent fluorogen SKC602; Fluorogen Activating Peptide (FAP) sequence) SYELTQPPSVSVSPGQTARITCSGDALPKQYTYWYQQKAGQAPVLVIYKDTERPSGIPERFSGTSSGTTATLTISGVQAEDEADYYCQSADSSGSYVFFGGGTKVTVLSGGGGPGGGSGGGSGGGSGGGSYELTQPPSVSVSPGQTARITCSGDALPKQYTYWYQQKAGQAPVLVIYKDTERPSGIPERFSGTSSGTTVTLTISGVQAEDEADYYCQSADSSGSYVFFGGGTKVTVLS	–	–	20	731	702	120000	0.17	–	–	remained stable over 24 hours
dL9.5:SKC728: fluoromodule: FAP dL9.5 (SEQ. ID. NO. 3) non-covalently complexed with fluorogen SKC728 (protein, non-covalent fluorogen SKC728; Fluorogen Activating Peptide (FAP) sequence) SYELTQPPSVSVSPGQTARITCSGDALPKQYTYWYQQKAGQAPVLVIYKDTERPSGIPERFSGTSSGTTATLTISGVQAEDEADYYCQSADSSGSHVFFGGGTKVTVLSGGGGPGGGSGGGSGGGSGGGSYELTQPPSVSVSPGQTARITCSGDALPKQYTYWYQQKAGQAPVLVIYKDTERPSGIPERFSGTSSGTTATLTISGVQAEDEADYYCQSADSSGSHVFFGGGTKVTVLS	–	–	23	733	703	98000	0.23	–	–	–
